Assay results published in article PMC5448812, “Distinct DNA-binding surfaces in the ATPase and linker domains of MutLγ determine its substrate specificities and exert separable functions in meiotic recombination and mismatch repair” (PLoS Genetics, 2017).

Substrate: Nc1ncnc2c1ncn2[C@@H]1O[C@H](COP(=O)(O)OP(=O)(O)OP(=O)(O)O)[C@@H](O)[C@H]1O
Assay: ATP hydrolysis, thin layer chromatography of [α-32P]-ADP
Type: biochemical, Saccharomyces cerevisiae
Details: 200 nM MutLγ, 25 mM Tris-HCl pH 7.5, 5 mM MgCl2, 1 mg/ml BSA, 30°C, no DNA, labelled compound as tracer (33 nM [α-32P]-ATP plus cold ATP), both subunits carry a GHKL ATPase domain, single apparent Km

B1: MutLγ (Mlh1-Mlh3) (Saccharomyces cerevisiae S288C) (protein)
chain 1: MSLRIKALDASVVNKIAAGEIIISPVNALKEMMENSIDANATMIDILVKEGGIKVLQITDNGSGINKADLPILCERFTTSKLQKFEDLSQIQTYGFRGEALASISHVARVTVTTKVKEDRCAWRVSYAEGKMLESPKPVAGKDGTTILVEDLFFNIPSRLRALRSHNDEYSKILDVVGRYAIHSKDIGFSCKKFGDSNYSLSVKPSYTVQDRIRTVFNKSVASNLITFHISKVEDLNLESVDGKVCNLNFISKKSISPIFFINNRLVTCDLLRRALNSVYSNYLPKGNRPFIYLGIVIDPAAVDVNVHPTKREVRFLSQDEIIEKIANQLHAELSAIDTSRTFKASSISTNKPESLIPFNDTIESDRNRKSLRQAQVVENSYTTANSQLRKAKRQENKLVRIDASQAKITSFLSSSQQFNFEGSSTKRQLSEPKVTNVSHSQEAEKLTLNESEQPRDANTINDNDLKDQPKKKQKLGDYKVPSIADDEKNALPISKDGYIRVPKERVNVNLTSIKKLREKVDDSIHRELTDIFANLNYVGVVDEERRLAAIQHDLKLFLIDYGSVCYELFYQIGLTDFANFGKINLQSTNVSDDIVLYNLLSEFDELNDDASKEKIISKIWDMSSMLNEYYSIELVNDGLDNDLKSVKLKSLPLLLKGYIPSLVKLPFFIYRLGKEVDWEDEQECLDGILREIALLYIPDMVPKVDTSDASLSEDEKAQFINRKEHISSLLEHVLFPCIKRRFLAPRHILKDVVEIANLPDLYKVFERC
chain 2: MSQHIRKLDSDVSERLKSQACTVSLASAVREIVQNSVDAHATTIDVMIDLPNLSFAVYDDGIGLTRSDLNILATQNYTSKIRKMNDLVTMKTYGYRGDALYSISNVSNLFVCSKKKDYNSAWMRKFPSKSVMLSENTILPIDPFWKICPWSRTKSGTVVIVEDMLYNLPVRRRILKEEPPFKTFNTIKADMLQILVMHPMISLNVQYTDKLRINTEVLFRSKNITEGLTKHQQMSQVLRNVFGAIIPPDMLKKVSLKFNEYQIEGIISKMPVGLKDLQFIYINGRRYADSAFQGYVDSLFQAQDFGEKGMSLLKTKSVGKPYRSHPVFILDVRCPQTIDDLLQDPAKKIVKPSHIRTIEPLIVKTIRSFLTFQGYLTPDKSDSSFEIVNCSQKTATLPDSRIQISKRNQVLNSKMKIARINSYIGKPAVNGCRINNSTINYEKIKNIRIDGQKSRLRNKLSSRPYDSGFTEDYDSIGKTITDFSISRSVLAKYEVINQVDKKFILIRCLDQSIHNCPLLVLVDQHACDERIRLEELFYSLLTEVVTGTFVARDLKDCCIEVDRTEADLFKHYQSEFKKWGIGYETIEGTMETSLLEIKTLPEMLTSKYNGDKDYLKMVLLQHAHDLKDFKKLPMDLSHFENYTSVDKLYWWKYSSCVPTVFHEILNSKACRSAVMFGDELTRQECIILISKLSRCHNPFECAHGRPSMVPIAELK
notes: full-length heterodimer (175 kDa), N-terminal 6xHis-2xFlag tag kept on Mlh1 (Mlh3 untagged), co-expressed from baculoviruses in Sf9 cells
Km: 64 ± 13 µM
